Data: patent US20210032364A1 (NOMOCAN PHARMACEUTICALS, published 2021)
One block for each binder: values may come before it.

Legend:
[1] = molecular target: T1, NMC-P1 peptide (human); assay: peptide-ELISA, plate-bound peptide
T1 construct: Peptide corresponding to amino acids 1-15 of HDM2
T1 peptide: MCNTNMSVPTDGAVT
Experimental: (§1) Peptide-ELISA Methodology: 5 μg/ml of NMC-P1, NMC-P2 or NMC-P3 peptide antigen was dried onto a 96-well ELISA plate overnight. Plates were then blocked with 5% BSA in 1× phosphate-buffered saline (PBS) (100 μl/well) for 2 hours at room temperature. Microplate wells were then washed 5 times with 300 μl of ice cold lx PBS. […] After 2 hours, wells were washed 5 times with 300 μl ice-cold PBS/well and 100 μl secondary antibody (HRP-labeled Goat anti-Mouse F(ab′)2 H&L cross-adsorbed secondary antibody (HRP-GaM F(ab′)2), ThermoFisher, Cat. No. A24524) diluted 1:2500 to 1:5000 in PBS-1% BSA solution were added and the incubation continued at room temperature. After 1 hour, the wells were washed again 5 times with 200 μl of ice-cold PBS and 50 μL of the TMB Substrate Solution (1-StepTM Ultra TMB-ELISA, ThermoFisher, Cat. No. 34028) were added to each well and color was allowed to develop for 30 minutes at room temperature. The reaction was stopped by addition of 50 μL of stop solution (ThermoFisher, Cat. No. SSO4) to each well and absorbance of each well was read immediately for optical density (OD) at 450 nm.

[2] = molecular target: T2, NMC-P2 peptide (human); assay: peptide-ELISA, plate-bound peptide
T2 construct: Peptide corresponding to amino acids 15-25 of HDM2
T2 peptide: TTSQIPASEQE
Experimental: as §1

[3] = molecular target: T3, NMC-P3 peptide (human); assay: peptide-ELISA, plate-bound peptide
T3 peptide: CPVCRQPIQMIVLTYFP
Experimental: as §1

[4] = molecular target: T3, NMC-P3 peptide; assay: competition peptide-ELISA, soluble peptide pre-incubated with the antibody
Experimental: as §1

[5] = molecular target: T4, recombinant HDM2 protein (GST tagged, Abcam, Cat. No. ab188727) (human, UniProt Q00987 1-491); assay: immunoblot
T4 construct: Bought protein, called full-length, about 83 kD with the tag; also called recombinant full-length HDM2 protein; recombinant HDM2-GST protein; not shown: GST tag at the N-terminus
Experimental: Western Blot: As for immunoblots, 1 μg/well of recombinant HDM2 protein (GST tagged, Abcam, Cat. No. ab188727) was separated on 8-16% sodium dodecyl sulfate (SDS) polyacrylamide gel and proteins were then transferred to polyvinylidene difluoride (PVDF) membrane. […] The membrane was then washed×3 times (10 minutes each) and incubated for 1 hour with corresponding HRP-conjugated secondary antibody (Goat anti-Mouse IgG (H&L), F(ab′)2 Frag Cross-adsorbed HRP (HRP-GaM F(ab′)2), ThermoFisher, Cat. No. A24524) diluted 1:5000 in 1% BSA-PBS. The membrane was then washed×3 times and incubated with Pierce ECL Plus Western Blotting Substrate (ThermoFisher, Cat. No. #32132) for 10 min before developing on a LICOR Scanner.

[6] = molecular target: T2, NMC-P2 peptide; assay: peptide competition in cell-ELISA on intact MIA PaCa-2 cells

T4 sequence (Q00987 whole entry): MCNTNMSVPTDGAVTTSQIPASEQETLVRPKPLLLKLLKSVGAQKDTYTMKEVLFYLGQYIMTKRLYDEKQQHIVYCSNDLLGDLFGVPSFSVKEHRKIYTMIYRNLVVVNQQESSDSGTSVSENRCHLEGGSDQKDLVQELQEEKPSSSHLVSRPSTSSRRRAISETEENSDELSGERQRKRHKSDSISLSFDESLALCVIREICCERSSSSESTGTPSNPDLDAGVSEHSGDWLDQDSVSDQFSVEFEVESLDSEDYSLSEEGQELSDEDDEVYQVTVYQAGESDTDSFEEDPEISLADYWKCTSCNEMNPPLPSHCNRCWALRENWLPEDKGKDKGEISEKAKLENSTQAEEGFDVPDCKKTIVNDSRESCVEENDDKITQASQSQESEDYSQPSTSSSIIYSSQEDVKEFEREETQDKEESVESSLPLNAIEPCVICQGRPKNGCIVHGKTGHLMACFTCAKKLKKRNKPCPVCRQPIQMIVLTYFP

binding result [1]: no binding | binding result [2]: binds | binding result [3]: no binding
B1: monoclonal antibody NMC-204 (antibody, IgG3, V domains shown)
VH: EVQLQESGSVLVRPGASVKLSCKASGDTLSGSWMHWAMQRPGQGLEWIGEIHLNRGTTNYNEKFKGKATVTVDTSSSTAYVDLSSLTSEDSAVYYCARSPGFAYWGQGTLVTVSA
VL: GIVMTQAAPSVPVTPGESVSISCRSSKSLLHSNGNSYLYWFLQRPGQSPQLLIYRMSNLASGVPDRFSGSGSGTAFTLRITRVEAEDVGVYYCMQHLEYPFTFGSGTKLEIK

binding result [1]: binds | binding result [2]: no binding | binding result [4]: no binding (tested: 10 µl/ml)
B2: monoclonal antibody NMC-103 (antibody, IgG1, V domains shown)
VH: EVQLQESGGGLVQPGGSLRLSCTTSGFTFTHYYMSWVRQPPGKALEWLGFIRNKAKGYTAEYSASVKGRFTISRDNSQSILYLQMNTLRPEDSATYYCARDIGDNWGQGTLVTVSS
VL: DIVMTQAAFSNPVTLGTSASISCRSSKNLLHSNGITYLYWYLQRPGQSPQLLISRVSNLASGVPNRFSGSESGTDFTLRISRVEAEDVGVYFCAQLLELPYTFGGGTKLEIK

binding result [5]: binds | binding result [3]: binds | binding result [6]: no binding
B3: monoclonal antibody NMC-303 (antibody, V domains shown)
VH: QVQLQQPGAELVKPGASVKLSCKASGYTFTSYYMYWVKQRPGQGLEWIGGINPRNGGTNFNEKFKNKATLTADKSSTTAYMQLSSLTSEDSAVYYCTRSGYYAMDYWGQGTSVTVSS
VL: DIQMTQTTSSLSASLGDRVTISCRASQDISNFLNWYQQKPDGTVKLLIYYTSRLHSGVPSRFSGSGSGTDYSLTISNLEQEDIATYFCQQGNTLPRTFGGGTKLEIK
